How the values were obtained:
[1] = system: MS2 coat protein; test: apparent KD of MS2 coat protein, switch OFF state (with FMN for OFF switches, without FMN for ON switches); designed switch direction (-1 OFF switch, 1 ON switch): -1; higher = weaker reporter binding; details: FMN input: 0 or 200 uM; Eterna round: R93 (includes R88 designs)
Outline: (§1)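 Binding of SNAP-549-labelled MS2 coat protein was measured on designed RNA switches transcribed on-chip from Illumina sequencing clusters. The protein rose in twofold steps from 0.7 or 1.5 nM to 3 µM, with 0.8–1.5 h per step early on and 10–20 min per step later, in 100 mM Tris-HCl pH 7.5, 80 mM KCl, 4 mM MgCl2, without or with constant ligand. Each design's apparent KD is the median of fits to its normalised cluster binding curves.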

[2] = system: MS2 coat protein; test: apparent KD of MS2 coat protein, switch ON state; designed switch direction (-1 OFF switch, 1 ON switch): -1; higher = weaker reporter binding; details: FMN input: 0 or 200 uM; Eterna round: R93 (includes R88 designs)
Outline: as §1

[3] = system: MS2 coat protein; test: apparent KD of MS2 coat protein; designed switch direction (-1 OFF switch, 1 ON switch): 1; higher = weaker reporter binding
Outline: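 RNA switches sharing common flanks were transcribed by stalled E. coli RNA polymerase on Illumina chips. A doubling series of SNAP-549-labelled MS2 coat protein, from 0.7 or 1.5 nM to 3 µM, was applied in Tris-HCl pH 7.5 buffer with KCl, MgCl2, BSA, DTT, tRNA and Tween-20. Each step lasted 0.8–1.5 h at the bottom of the series and 10–20 min at the top. Normalised cluster fluorescence was curve-fitted, giving apparent KD as the per-design median over clusters.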

[4] = Eterna round: R95, input ligand: FMN 200 uM
[5] = Eterna round: R95, input ligand: microRNA oligo, concentration not stated
[6] = Eterna round: R95, input ligand: none
[7] = input ligand: microRNA oligo, concentration not stated

| Sequence | apparent KD of MS2 coat protein ([3]; input ligand: FMN 200 uM) | apparent KD of MS2 coat protein [3, 7] | apparent KD of MS2 coat protein ([3]; input ligand: none) | further results |
| --- | --- | --- | --- | --- |
| AAAAAACAUGAGGAUCACCCAUGUAAGGAUAUGACUUAAAUAAAGAAAGAAGAAAUAGUCAGAAGGUACAAAUA [Disincluded (MS2 Riboswitches - States energetically close)] |  |  |  | apparent KD of MS2 coat protein [1]: 31 nM; apparent KD of MS2 coat protein [2]: 20.4 nM |
| ACUUAUGAAGGAUAUACUAACAACAUACACUCAACACACACACAUGAGGAUCACCCAUGUAGAAGGUCAAACAU [JR_Exc002_Sub1205] |  |  |  | apparent KD of MS2 coat protein [1]: 18.2 nM; apparent KD of MS2 coat protein [2]: 19.6 nM |
| UAAAGGCGAGGAUAUACAUGAGGAUCACCCAUGUGAAUAAAUAAUAAAAUAAAAUAAAGUAGAAGGCGCAAUAA [LROPPY Exclusion 3 - v03_deltaG=1.9 break up As] |  |  |  | apparent KD of MS2 coat protein [1]: 43.2 nM; apparent KD of MS2 coat protein [2]: 53.9 nM |
| AACAGUACAGGAUAUACAUGAGGAUCACCCAUGUAAAAAGGGAGUGGCGUACCACAAAGUAGAAGGGUACUGGA [Moding Maslow revisited (73) 7] |  |  |  | apparent KD of MS2 coat protein [1]: 172 nM; apparent KD of MS2 coat protein [2]: 36.9 nM |
| UGUUGGCGAGGAUAUACAUGAGGAUCACCCAUGUGAGAGAAAAAAGUGAGAAAGAAAAGUAGAAGGCGCUGACA [salish99-ex3-07] |  |  |  | apparent KD of MS2 coat protein [1]: 282 nM; apparent KD of MS2 coat protein [2]: 46.2 nM |
| AUCAACCUAGGAUAUACAUGAGGAUCACCCAUGUACAGAUACAACAAGGGAAACACACGUAGAAGGAGGAAGAU [JR_Exc003_Sub1205] |  |  |  | apparent KD of MS2 coat protein [1]: 52.1 nM; apparent KD of MS2 coat protein [2]: 24.4 nM |
| AAAAAACAUGAGGAUCACCCAUGUCAGGAUAUCUGUAUAAAUAAAAAAAUAAAAAUACAGAGAAGGGACAAAAA [Ex1: 608] |  |  |  | apparent KD of MS2 coat protein [1]: 51.7 nM; apparent KD of MS2 coat protein [2]: 50.5 nM |
| UGCAUACAUGAGGAUCACCCAUGUCAACUUAGUCGAGGAUAUGGGCAGCCGUGAGGCGAACCAGAAGGCGAAUUGU [JL-ss1-3.02 ViennaUCT mod] (puzzle: Same State 1) |  |  |  | apparent KD of MS2 coat protein [3, 4]: 18.5 nM; apparent KD of MS2 coat protein [3, 5]: 43.8 nM; apparent KD of MS2 coat protein [3, 6]: 45.7 nM |
| AUUUUUAAUGCAGGAUAUGAUUAACAUGAGGAUCACCCAUGUGGUGUUGUGAGUAAGGAGAGUGAUCAGAAGGGCAAUUUUUUU [JMF's solution 78] (Eterna round: R96, puzzle: Same State NG 2) | 731 nM | 226 nM | 433 nM |  |
| GUAGCAUACCGAGGAUAUUCAUAUUAUACAUGAGGAUCACCCAUGUAAGGUCGAUUACGACCUUGGGAGAAGGCGGAAUGCUAC [Xeonanis - 20 Mod34] (Eterna round: R96, puzzle: Same State NG 2) | 20.3 nM | 71.9 nM | 108 nM |  |
| UAGUGCAUUAGAGGAUAUUCUUACGGAAACGGUAAGACAUGAGGAUCACCCAUGUUGUCACAUGGGAAGAAGGCUGAUGUGCUA [Omei SS(NG)2 Bv5] (Eterna round: R96, puzzle: Same State NG 2) | 82.6 nM | 104 nM | 510 nM |  |
| AGAGGAGGCGCAGGAUAUACGACGGAGGACGUGGUAGAAGGGUGCAUGCGAUAACAUGAGGAUCACCCAUGUACCGCGCGACGA [AK SSNG1-V2-17] (Eterna round: R96, puzzle: Same State NG 1) | 210 nM | 30.2 nM | 198 nM |  |
| AACAAUCUAUCUGAGGAUAUCAUGAAAAAAACAUGAGGAUCACCCAUGUGCAGGAAAACUGCAUAUGAGAAGGCAGAUAGAUUGC [salish99_SS2_r3_004] (puzzle: Same State 2) |  |  |  | apparent KD of MS2 coat protein [3, 4]: 32.5 nM; apparent KD of MS2 coat protein [3, 5]: 785 nM; apparent KD of MS2 coat protein [3, 6]: 1690 nM |
| UGGCUGGUGAUAGGAUAUACAUGAGGAAUCCUCGUAGAAGGAUCACGACAUGAGGAUCACCCAUGUAGCCGUCCGUAGACGGCU [salish99_SSNG1_r04_005] (Eterna round: R96, puzzle: Same State NG 1) | 493 nM | 198 nM | 551 nM |  |
| CUUCGGAAGCGAGGAUAUGCAGAGGAUCACCCUGCAGAAGGCGCAAAAGCGAGGAUAUGCAGAGGAUCACCCUGCAGAAGGCGC [pwkr ssNG DX.34] (Eterna round: R96, puzzle: Same State NG 1) | 43 nM | 15.7 nM | 32.4 nM |  |
| GUGCUCGUGUGAGGAUAUGCUUCCGUUUCGGCUGCAGAAGGUACUAUUAUACAUGAGGAUCACCCAUGUCUCUUUUCUCCGGUG [salish99_SSNG1_r04_913] (Eterna round: R96, puzzle: Same State NG 1) | 38.3 nM | 27.4 nM | 37.2 nM |  |
| CGUCCGGCCUGUGCUGGCCGGUCGCUUGUACAUGAGGAUCACCCAUGUUCUUGUGCUGGCUUUUUGCUCGUCUUGUG [salish99_mir208a_020] (puzzle: Sensor for hsa-mir-208a) |  |  |  | apparent KD of MS2 coat protein [3, 4]: 27.1 nM; apparent KD of MS2 coat protein [3, 5]: 17.7 nM; apparent KD of MS2 coat protein [3, 6]: 31 nM |
| GGGCCACAUGAGGAUCACCCAUGUGGAGCUAGUGCACGGUCACAGGAUAUCUCGUGGGCGUAUAGGGAGAAGGGUGAUUCAUUA [Eternabot solution 18] (Eterna round: R96, puzzle: Same State NG 3) | 47.2 nM | 51.3 nM | 52.3 nM |  |
| ACUCUCACAGUAGGAUAUGUAGGAUAUGCCUACAUGAGGAUCACCCAUGUAAACAUGGCAGAAGGAUAGAAGGACUGACAUGGG [pwkr ssNG2 2FMN + 1F5.3] (Eterna round: R96, puzzle: Same State NG 2) | 274 nM | 233 nM | 278 nM |  |
| ACAUGAGGAUCACCCAUGUAACACCUGAAAAUAAAACGAACACAGGAUAUCCCGGCAAGACACCGGGAGAAGGGUGAUCGAAGA [Eresorbe] (Eterna round: R96, puzzle: Same State NG 3) | 411 nM | 13.6 nM | 90.9 nM |  |
| ACUCAGUACAAUUUAGAUCUACAUGAGGAUCACCCAUGUACUGAGGAUAUCAGCUCGUUUAGAGCUGAGAAGGCAGUUGUACUA [SSNG3/10-A3] (Eterna round: R96, puzzle: Same State NG 3) | 108 nM | 221 nM | 311 nM |  |
| UGAAUAGUGAUAGGAUAUACAUGAGGAAUCCUCGUAGAAGGAUCACGACAUGAGGAUCACCCAUGUAGCCGUCAGAAGACGGCA [Mat - Same State NG 1 - JL mod - D60] (Eterna round: R96, puzzle: Same State NG 1) | 450 nM | 345 nM | 2610 nM |  |
| UUCAACUGAGGAGGAUAUGCAGAGGAUCACCCUGUAGAAGGCCUCGAAAGGAGGAUAUGCAGAGGAUCACCCUGUAGAAGGCCU [pwkr ssNG DX.19] (Eterna round: R96, puzzle: Same State NG 1) | 417 nM | 148 nM | 132 nM |  |
| GUGGUGGGUUGAGGAUAUUGGUUGUUGUUGUUCCACAUGAGGAUCACCCAUGUGGGUUGUGGUUUUGAGAAGGUUGGUUGCUGG [salish99_SSNG2_r04_050] (Eterna round: R96, puzzle: Same State NG 2) | 17.2 nM | 14.2 nM | 20.3 nM |  |
| UGUUGUAUUACAGGAUAUCUAUUAGGUUUAUUUAGAGAAGGGUAUUCACAUGAGGAUCACCCAUGUAUAUACGAGGAAGUUGUG [JMF's solution 87] (Eterna round: R96, puzzle: Same State NG 1) |  | 41.8 nM |  |  |
| GGUAAGAAUUAAGGAUAUCGAGUACAUAUGUUUAACAUGAGGAUCACCCAUGUGGGUUGCGGUAUCGAGAAGGUAAAAUAAAAG [Mat - same State NG 2 - JL mod - D65] (Eterna round: R96, puzzle: Same State NG 2) | 53 nM | 29.2 nM | 36.2 nM |  |
| AUGAAGAACUAAGGAUAUUGAAUACAUAUGUUUAACAUGAGGAUCACCCAUGUGGGUUGCGGUAUCGAGAAGGUAGAAUAAUAG [Mat - same State NG 2 - JL mod - D92] (Eterna round: R96, puzzle: Same State NG 2) | 95.7 nM | 70.3 nM | 123 nM |  |
